This data set can be described thus: yeast display, Sf9 membrane polyspecificity reagent, FACS + sequencing; frameworks hold sequencing errors. The procedure, abridged:
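Nanobodies came from a synthetic yeast display library in Saccharomyces cerevisiae BJ5465, induced with galactose for 36–48 hours and stained for 1 hour at 4 °C with 10% biotinylated, detergent-solubilized Sf9 membrane reagent. Cells were enriched on streptavidin microbeads and then FACS-sorted, with low and high (top ~1%) gates set on anti-HA fluorescence for expression and streptavidin fluorescence for reagent binding. Each polyreactivity label reflects the gate a clone came from. Genes were amplified by colony PCR, sequenced by MiSeq 2 × 250 and filtered by CDR length.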
“QVQLVDSGGGLVQAGGSLRLSCAASGLIFGYYDMGWYRQAPGKERELVAAITTGDSTYYADSVKGRFTISRDNAKNTVYLQMTCLKPEDSAVYYCSAYAFWYYESDYWGKGTQVTVSS”: the “polyreactivity (PSR sort gate)” value was “low polyreactivity”.
Next, “QVQLVESGGGLVQAGGSLRLSCAASGGTFLYYMGWYRQSPGKERELVAAITFSGGSTYYADSVKGRFTISRDNAKNTVYLQMNSLKPEDTAVYYCAAGWYDWPKYLLSVYTYYLYDSWGQGTQVTVSS”: “low polyreactivity”.
Next, “QVQLVESGGGLVQAGGSLRLSCAASGSIFNRNVMGWYRQAPGKERELVAAITWSGASTYYADSVKGRFTISRDNAKNTVYLQMNSLKPEDTAVYYCAATQYYRGYDYWGQGTQVTVSS”: “high polyreactivity”; “QVQLVESGGGLVQAGGSLRLSCAASGYIFQDYAMGWYRQAPAKERELVARISAGGGRTYYADSVKGRFTISRDNAKNTVYLQMISLKPEDTAVYYCAAPLSYYWVYIVRYGYDYWGQGTQVTVSS”: “low polyreactivity”.
Next, “QVQLVESWGGLVQAGGSLRLSCAASGRIFYKYAMGWYRQAPGKERELVAAISYSGGSTYYADSVKGRFTISRDNAKITVYLQMKSLKQEDTAVDDCNAKPPYGVRSWGDYWGQGTKVTVSS”: “low polyreactivity”.
Regarding “QVQLVESGGGLVQAGGSLRLGCAASGGTITSYAMGWYRQAPGKERELVAAITVSGSSTYYADSVKGRFTISRDNAKNTVYLQMNSLKPEDTAVYYCAARWRRFQFDYWGQGTQVTVSS”, the “polyreactivity (PSR sort gate)” value is given as “high polyreactivity”.
The result for “QDQLVESGGGLVQAGGSLRLSCAASGRNFKYYGMRRYRQAPVKERDLVAAISRGSSTNYADSVKGRFTISRDNAKKTVYLQMYSLKPEDTAVYYCAVSLRRGGSGYAYDNWGQGTQVTVSA” reads “high polyreactivity”.
Next, “QVQLVESGGVLVKAGGSLRLSCAASGRIFGYYAMGWYIQAPGKERELFAAITYSSGRTYYADSVKGRFTISRDNAKNTFYLQMNSLKPEDTAVYYCAARYHYYLSPATYYYWGQGTQVTVSS”: “high polyreactivity”; “QVQLVESGGGLVQAGGSLRLSCAASGSIFGSYAMGWYRQAPGKERELVAAISSSGGSTYYADSVKGRFTISRVNAKNTVYFQMNSLKPEDTAVYYCNKYVRYGDGYWGQGTQVTVSS”: “high polyreactivity”.
Turning to “QVQLVESGGGLVQAGGSLRLSCAASGRTFGVYMGWYRQAPGKERELVAVISSGDSTNYADSVKGRFTISRDNAKNTVYLQMNSLKPEDTAVYYCNAYGSDRLTLDDYWGQGTQVTVSS”, the “polyreactivity (PSR sort gate)” value was “low polyreactivity”.
As to “QVQLVESGGGLVQAGGSLRLCCAASGITFALNAMRWYRQAPGNERELLAAISWSGDSTYYADSVKGRITIARDNAKNTVYLQMNSLKPEDTAVYYCAAVAYLNWTPHYYWGQGTQVTVSS”, the “polyreactivity (PSR sort gate)” value is on record as “low polyreactivity”.
The result for “QVQLVESGGGLVQAGGSLRLSCAASGSTFDGYTMGWYRQAPGKERELVAAISWRGTSTYYADSVKGRFTISRDNAKNTVYLQMNSLKPEDTAVYYCGAENWKPRVYWIYSGHHGYWGQGTQVTVSS” reads “low polyreactivity”; that for “RVQLQESGGGLVQAGGTLRLSCAASGTIFIRGDMGWYRQAPGKEREFVATIDTGSNTYYADSEKGRFTISRDNAKKAVYLQMNCLKPGDTAVYYCVVDYQLSGRLWDWGQGTQVTLSS”, “low polyreactivity”.
As to “QVQLVESAGGLVQAGGSLRLSCAASASIFYVYSMGWSRQAPGKEREFVAAISWRGGSTYYADSVKGRFTISRDNAKNTVYLQMISLKPEDTAVFYCNGRRLGYRSGHPGYYWGQGTQVTVSS”, the “polyreactivity (PSR sort gate)” value is “high polyreactivity”.
The result for “QVQLVESGGGLVQAGGSLRISCAASGRTFARYVMGWYRQAPGKERELVAAISGGGGSTYYADSVKGRLTISRDTAKNTVFLQMNSLKPAETAVYYCAAVPEGPNTGDDANGLDYWGQGTQVTVSS” reads “low polyreactivity”.
Regarding “QLQLVESGGGLVQAGGSLRLSCAASGGPFRPYAMGWYRQAPGKERELVAAISYTGSTYYADSVKGRFTISRDNAKNTVYLQMNSLKPEDTAVYYCAKDFWYPPRFDYWGQGTQVTVSS”, the “polyreactivity (PSR sort gate)” value is “low polyreactivity”.
Next, “QVQLVESGGGLVQAAGSLRLSCAASVITFVKNAMGWYRQAPGKERELVARIRIGGSTSYADSVKGRFTISRDYAKNTFYLQLNSLKPEDTAVYYCARYAGRLSYRYEYWGQGTQVTVSS”: “high polyreactivity”.
The result for “QVQLVESGGGLVQAGGSLRLSCAASGLTFTPYTMGWYRQAPGKERELVAAITSSAARTYYADSVKGRFTISRDKAKNTVYFQMNSLKPEDTAVYYCNRYRLPSGRYEYWGQGTQVTVSS” reads “high polyreactivity”.
Regarding “QVQLVESGGGLVQAGGSLRLSCAASGSTFYVYAMGWYRQAPGKERELVASINSGGITNYADSVKGRFTISRDNAKNTVYLQMNSLKPEDTAVYYCAARSYKTGRYPQRNKYYYWGQGTQVTVSS”, the “polyreactivity (PSR sort gate)” value was “high polyreactivity”.
For the sequence “QVQLVESGGGLVQAGGSLRLSCAASGFTFYRYAMGWYRQAPGKERELVAAITWSGGSTYYADSVKGRFTISRDNAKNTVYFQMNSLKPEDTAVYYCAASRWIFQVNDYDYWGQGTQGTVSS”, the “polyreactivity (PSR sort gate)” value is listed as “high polyreactivity”.
As to “QVQLVESGGGLVQAGGSLRLSCAATGSIFQSYAMGWYRQAPGKERELVAAITARGTSTYYADSVKGRFTISRDNAKNTVYLQMNSLKPEETAVYYCNTDRSRSPGDVESPSDIKRDYWGQGTQVTVSS”, the “polyreactivity (PSR sort gate)” value was “low polyreactivity”.
The result for “QVQLVESGGGLVQAGGSLRLSCAASGSIFYRYAMGWNRQAPGKERELVATITQSGVSTYYADSEKGRFTISRDNAKNTVYLQMNSLKPEDTAVYYCAASYYYTIGPYFRKFDWGQGTQVTVSS” reads “low polyreactivity”; that for “QVQLVESGGGLVQAGGSLRLSCAASGSIFTPYTMVWYRQAPGKERELVAAIRPNSGSTYYADSVKGRFTISRDNAKNTVYLQLNSLKPEDTAVYYCNAQCYGPGGGYFWSYDYWGQGTQVTVSS”, “low polyreactivity”; that for “QVQVVESGGGLVQAGGSLRISCAASGSIFPGYDMGWYRQAPGKERELVAAIRTSGGSTNYADSVKGRFTISRDNAKNTVYLQMNSLKPEDTAVYYCAARTNSPRGTKRYYWGQGTQVTVSS”, “high polyreactivity”.
As to “QVQLVESGGGLVQAGGSLRLSCADSGFTYAYYVMGWYRQAPGKERELVAAISISGGRTYYADSVKGRFTISRDNAKNTVYLQMNSLKPEDTAVYYCAADRRTDGHDYWGQGTQVTVSS”, the “polyreactivity (PSR sort gate)” value was “high polyreactivity”.
Take “QVHLVESGGGLVQAGGSLRLSCAASGSTFILNAMGWYRQAPGKERELVATISSSDTSTYYADSVKGRFTISRDNAKNTVYLQMNSLKPEDTAVYYCNADYYTTSYLQRVYHYGVEYDYWGQGTQVTVSS”: the “polyreactivity (PSR sort gate)” value is recorded as “low polyreactivity”.
For the sequence “QVQLVESGRGLDQAGGSLRISSAASGNTYKGHAMGWYRHAPGKERELVAAISWSTDSTYYADSVKGRFTISRDNAKNTVYLQMNSLKPEDTAIYYCAAYYSHLTIAWYYYWGQGTQVNVSS”, the “polyreactivity (PSR sort gate)” value was “low polyreactivity”.
The result for “QVQLVESGGGLVQAGGSLRLSCAASGSTFYINAMGWYRQAPGKERELVAAISWGGGSTYYADSVKGRFTISRDNAKNTVYLQMNSLKPEDTAVYYCAKLKGTQPNRYDYWGQGTQVTVSS” reads “low polyreactivity”.
As to “QVQLVESGGGLVQAGGSLRLSCAASGSTFSGYAMRWYRPAPGKERELVAAISWSGGSTYYADSVKGRFTISRDNAKNTVYLQMNSLKPEDTSVNYCNALESTIRGYPYDYWGQGTQVTVSS”, the “polyreactivity (PSR sort gate)” value is “low polyreactivity”.
Next, “QVQLVESGGGLVQAGGSLRLSCAASGFIFDSYAMGWYRQAPGKERELVAAISDGSSTYADSVKGRFTISRDNAKNTVYLQMNSLKPEDTAVYYCAAGVSTWWSTYDYWGQGTQVTVSS”: “high polyreactivity”; “QVQLVESVGGLVQAGGSLRLSCAASGSTFHRNTMGWDRQAPGKERELVAGISLRGVRTYYADSVKGRFTISRDKAKNTVYLQMNSLKPEDTAVYYCAAGCPYTRNFKLGYWGQGTQVTVSS”: “high polyreactivity”; “QVQLVESGGGLAQAGGSLRLSCAASGRTFRTYTMGWYRQAPGKERELVAAISWSGSSTYYADSVKGRFTISRDNAKNTVYLQMNSLKPEDTAVYYCAARGLYDYGYWGQGTQVTVSS”: “high polyreactivity”.
Next, “QVQLVESGGGLVQAGGSLRLSCAASGNTFRYYAMGWYRQAPGKERDLVAAISESGGRTYYADSVKGRFTISRDNAKKTVYLQMNSLKPEDTAFYYCAASRWARTWWYGYNYWGQGTQVTVSS”: “high polyreactivity”; “QAQLVETGGGLVQAGGSRRLSCAASGRTYKGYVMGWYRQAPGKEREFVAVITRDGGSTYYAVSVKGRFTISRDNAKNTVYLEMKSLKPEDTEVYYCASTYYPVAGEYDYWGQGTKVTVSS”: “low polyreactivity”; “QVQLVESGGGLVQAGGSLRLSCAASGSTFYYYAMGWYRQAPGKERELVAAIDWSGESTYYADSVKGRFTISRDNAKNTVYLQMNSLKPEDTAVYYCAADLGYPWGYVLFYKQSFSYYYWGQGTQVTVSS”: “low polyreactivity”.
Next, “QVQLEESGGGLVQAGGSLRLTCAASGRTFSSYTMGWSRQAPGKERELVASITNNGGSTYYADSVKGRFTISRDNAKNTVYLQMNSLKPEDTAVYYCNKDPWYVFHPRGLFLFDYWGQGTQVTVSS”: “low polyreactivity”; “QDQLVESGGGLVQAGGSLRLSCAASGRIFHFNAMGWYRQAPGKERELVAAITSSGGSTDYADSVKGRFTISRDTAKNTVYLQMNRLKPEDTADYYCAKRVDAYGWWGRRSGVLSDYWGQGTQVTVSS”: “low polyreactivity”; “QVQLVESGGGLVQAGGSLRLSCAASGSIFYIYAMVWYRQAPGKERELVATITRGGSSYADSVKGRFTISRDNAKNTVYFQMNSLIPEDTAVYYCAADVFKYWSQQTSTVYDYWGQGTQVTVSS”: “high polyreactivity”.
In the case of “QVQLVESGGGLVQAGGSLRLSCAASGITFNYYAMGWYRQAPGKERELVATINRSGGTTYYADSVKGRITISRDNAKNTVYLQMNSLKPEDTAVYYCNARYTSRGRYHSGYDYWGQGTQVTVSS”, the “polyreactivity (PSR sort gate)” value is recorded as “high polyreactivity”.
The result for “QVHLVESGGGLDQAGGSLRLSCAASGSTFSGYAMGWYRQAPGKERELVAAISSTGRTYYADSVKGRFTISRDNAKNTVYLQMNSLIPEDTALYYCAAKRYTVYGHKYEYWGQGTQVTVSS” reads “high polyreactivity”.

For the origin of these results see the nanobody polyreactivity screen of Harvey et al. (2022).
